Laboratory results: patent US6995019B2, “Fluorescent isothiocyanate (fitc) sinistrin, its production and use” (priority 2000, dated 2006)

Columns and labels:
[1] = background statement on prior art; cited from earlier work
[2] = background statement on prior art; cited from earlier work; remark: listed apart in the source

Row | Substance | solubility in water [1] | blood pressure after injection into an experimental animal [2] | fluorescence (presence of substance) in lung, liver and kidney sections (rat, 30 mg per kg at intervals of 2 days, sacrificed 4 hours after last administration) | effect of deposition in the liver (rat, liver, substance found mainly intracellularly) | effect of deposition in the lung (rat, lung, substance found in the corpuscles) | fluorescence (accumulation) in liver, lung and kidneys (rats sacrificed 6 minutes after the injection, rinsed with saline solution)
1 | FITC-inulin | only very slightly soluble in water | transient reduction in blood pressure | considerable fluorescence is observed | irreversible cell damage (cell death) | leads to microstenoses and ultimately to embolism | accumulates in the liver, lung and kidneys
2 | inulin | only very slightly soluble in water | transient reduction in blood pressure | – | – | – | –
